Target: light-harvesting complexes of G. phototrophica (light-harvesting antenna subunits, B868 inner ring and B816 outer ring) (G. phototrophica (endogenous in strain AP64))
Assay: negative-stain TEM with single particle analysis; freshly purified complexes on carbon-coated copper grids, 1.5% uranyl acetate, 200 kV, 2D class averages in RELION

**Q.** “light-harvesting complexes of G. phototrophica (light-harvesting antenna subunits, B868 inner ring and B816 outer ring)” was tested. Which stoichiometry N did it give?
**A.** Its stoichiometry N is 15.
